Assay results as given in US20140274782A1, “AFFINITY REAGENTS AND METHODS FOR DETECTION, PURIFICATION, AND PROTEOMIC ANALYSIS OF METHYLATED PROTEINS” (The Board of Trustees of the Leland Stanford Junior …, priority 2013, published 2014).

T1: G9a and GLP (Homo sapiens, UniProt Q96KQ7+Q9H9B1)
T1 sequence (Q96KQ7 2-1210 limits assumed): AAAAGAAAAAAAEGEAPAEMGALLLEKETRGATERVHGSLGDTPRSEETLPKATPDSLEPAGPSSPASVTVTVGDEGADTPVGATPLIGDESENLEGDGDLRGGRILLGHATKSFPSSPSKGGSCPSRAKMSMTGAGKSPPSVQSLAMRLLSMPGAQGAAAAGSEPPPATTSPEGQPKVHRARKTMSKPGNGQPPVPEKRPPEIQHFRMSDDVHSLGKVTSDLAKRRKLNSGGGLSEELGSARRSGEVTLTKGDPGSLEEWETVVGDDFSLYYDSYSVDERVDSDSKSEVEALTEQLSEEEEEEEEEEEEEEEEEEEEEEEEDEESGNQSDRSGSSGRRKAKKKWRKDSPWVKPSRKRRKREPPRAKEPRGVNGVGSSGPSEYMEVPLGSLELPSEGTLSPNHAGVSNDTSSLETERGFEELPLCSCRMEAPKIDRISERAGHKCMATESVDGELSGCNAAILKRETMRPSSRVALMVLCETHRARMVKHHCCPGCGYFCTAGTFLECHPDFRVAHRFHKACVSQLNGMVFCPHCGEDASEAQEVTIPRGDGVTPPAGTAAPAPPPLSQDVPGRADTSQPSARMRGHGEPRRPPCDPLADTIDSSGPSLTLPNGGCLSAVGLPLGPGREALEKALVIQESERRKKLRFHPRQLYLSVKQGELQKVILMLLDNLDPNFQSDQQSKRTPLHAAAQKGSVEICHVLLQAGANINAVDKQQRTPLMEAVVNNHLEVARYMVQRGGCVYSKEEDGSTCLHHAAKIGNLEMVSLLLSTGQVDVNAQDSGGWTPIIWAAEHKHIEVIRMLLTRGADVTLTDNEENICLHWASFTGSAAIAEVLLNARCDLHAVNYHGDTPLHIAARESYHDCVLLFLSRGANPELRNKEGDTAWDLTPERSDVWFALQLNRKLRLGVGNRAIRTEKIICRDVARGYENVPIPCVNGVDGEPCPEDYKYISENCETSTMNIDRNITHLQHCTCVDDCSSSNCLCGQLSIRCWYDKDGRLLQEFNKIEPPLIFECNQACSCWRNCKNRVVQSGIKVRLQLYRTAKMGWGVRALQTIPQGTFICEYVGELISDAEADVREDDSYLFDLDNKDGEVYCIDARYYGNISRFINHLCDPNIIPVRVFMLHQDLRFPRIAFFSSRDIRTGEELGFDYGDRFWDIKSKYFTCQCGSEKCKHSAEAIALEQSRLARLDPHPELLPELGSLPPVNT
T1 sequence (Q9H9B1 2-1298 limits assumed): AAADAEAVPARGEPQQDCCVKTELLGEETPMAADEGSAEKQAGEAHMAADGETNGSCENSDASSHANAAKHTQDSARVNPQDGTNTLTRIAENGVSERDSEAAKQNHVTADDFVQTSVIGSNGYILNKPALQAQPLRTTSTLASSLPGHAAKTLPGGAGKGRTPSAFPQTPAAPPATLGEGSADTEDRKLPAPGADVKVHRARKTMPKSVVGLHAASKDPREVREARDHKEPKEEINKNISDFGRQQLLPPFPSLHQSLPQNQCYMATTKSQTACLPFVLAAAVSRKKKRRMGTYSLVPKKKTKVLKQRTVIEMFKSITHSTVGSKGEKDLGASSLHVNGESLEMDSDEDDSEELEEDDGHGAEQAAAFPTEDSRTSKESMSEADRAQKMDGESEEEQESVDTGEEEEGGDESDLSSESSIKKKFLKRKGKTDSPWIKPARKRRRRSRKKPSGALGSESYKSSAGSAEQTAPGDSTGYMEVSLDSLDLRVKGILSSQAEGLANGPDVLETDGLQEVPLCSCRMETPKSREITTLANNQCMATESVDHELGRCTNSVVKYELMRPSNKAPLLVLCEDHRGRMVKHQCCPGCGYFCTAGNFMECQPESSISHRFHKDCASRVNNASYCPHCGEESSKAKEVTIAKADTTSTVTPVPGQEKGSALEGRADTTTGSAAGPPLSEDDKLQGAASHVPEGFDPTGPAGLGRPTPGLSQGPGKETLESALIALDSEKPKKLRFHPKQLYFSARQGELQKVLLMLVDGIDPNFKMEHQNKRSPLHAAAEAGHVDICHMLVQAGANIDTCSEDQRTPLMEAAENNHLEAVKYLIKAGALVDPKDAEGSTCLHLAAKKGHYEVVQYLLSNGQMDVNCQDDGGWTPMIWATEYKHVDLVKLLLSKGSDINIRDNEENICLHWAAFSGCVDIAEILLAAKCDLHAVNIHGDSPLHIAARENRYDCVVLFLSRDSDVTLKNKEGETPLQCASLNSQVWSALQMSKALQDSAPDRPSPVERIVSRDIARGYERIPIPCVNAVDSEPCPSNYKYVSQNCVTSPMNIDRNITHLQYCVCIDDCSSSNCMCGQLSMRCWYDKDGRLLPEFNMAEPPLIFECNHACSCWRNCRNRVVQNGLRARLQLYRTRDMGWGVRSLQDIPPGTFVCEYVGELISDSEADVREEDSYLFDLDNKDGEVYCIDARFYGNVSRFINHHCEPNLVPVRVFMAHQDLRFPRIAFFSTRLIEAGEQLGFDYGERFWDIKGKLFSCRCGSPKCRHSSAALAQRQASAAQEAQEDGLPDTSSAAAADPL


Tests used:
3×MBT domain of L3MBTL1 = test: Triple SILAC pull-down, 3xMBT/3xMBTD355N ratio (cytoplasmic, nuclear and chromatin fractions of 293T cells); assay type: binding, human; settings: SILAC ratio, pull-down 3xMBT vs 3xMBTD355N; for 3xMBT/D355N UNC Heavy: experiment with UNC0638 in heavy SILAC media; for 3xMBT/D355N UNC Light: experiment with UNC0638 in light SILAC media;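 on all read-outs here: proteins quantified with MaxQuant, requiring at least two unique peptides and quantification in both label directions, normalized to the mean of proteins from a digested loading control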
G9a and GLP = target: T1, G9a and GLP; test: Triple SILAC pull-down after UNC0638 treatment of 293T cells, DMSO/UNC0638 ratio of protein captured by 3×MBT; assay type: cell-based; design: cells were treated for 24 hours with UNC0638 at 2.5 μM or DMSO vehicle control; endogenous in cells; host or cells: HEK 293T; settings: for Relative to UNC0638 UNC Heavy / Relative to UNC0638 UNC Light: SILAC ratio DMSO/UNC0638 of protein pulled down with 3xMBT; for Relative to UNC0638 UNC Heavy: UNC0638 in heavy SILAC media; for Relative to UNC0638 UNC Light: UNC0638 in light SILAC media; for Relative to UNC0638 Average: average of UNC Light and UNC Heavy experiments;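 on all read-outs here: mass spectrometry (Q-Exactive) SILAC quantitation, DMSO/UNC0638 ratio computed after subtracting 3×MBTD355N mutant pull-down background, only proteins with at least twofold 3×MBT over mutant signal considered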

| Relative to UNC0638 UNC Heavy (G9a and GLP) [log base 2] | Relative to UNC0638 UNC Light (G9a and GLP) [log base 2] | Relative to UNC0638 Average (G9a and GLP) [log base 2] | Molecule | 3xMBT/D355N UNC Heavy (3×MBT domain of L3MBTL1) [log base 2] | 3xMBT/D355N UNC Light (3×MBT domain of L3MBTL1) [log base 2] |
| --- | --- | --- | --- | --- | --- |
| 0.24 | 0.33 | 0.29 | RBM3 (protein, UniProt P98179 1-157, looked up) RNA-binding protein 3: MSSEEGKLFVGGLNFNTDEQALEDHFSSFGPISEVVVVKDRETQRSRGFGFITFTNPEHASVAMRAMNGESLDGRQIRVDHAGKSARGTRGGGFGAHGRGRSYSRGGGDQGYGSGRYYDSRPGGYGYGYGRSRDYNGRNQGGYDRYSGGNYRDNYDN | 3.49 | 3.25 |
| 0.51 | 0.05 | 0.28 | CNBP (protein, UniProt P62633 2-177, looked up) CCHC-type zinc finger nucleic …: SSNECFKCGRSGHWARECPTGGGRGRGMRSRGRGGFTSDRGFQFVSSSLPDICYRCGESGHLAKDCDLQEDACYNCGRGGHIAKDCKEPKREREQCCYNCGKPGHLARDCDHADEQKCYSCGEFGHIQKDCTKVKCYRCGETGHVAINCSKTSEVNCYRCGESGHLARECTIEATA | 1.05 | 1.79 |
| 0.52 | 0.06 | 0.29 | ZNF598 (protein, UniProt Q86UK7 1-904, looked up) E3 ubiquitin-protein ligase …: MAAAGGAEGRRAALEAAAAAAPERGGGSCVLCCGDLEATALGRCDHPVCYRCSTKMRVLCEQRYCAVCREELRQVVFGKKLPAFATIPIHQLQHEKKYDIYFADGKVYALYRQLLQHECPRCPELPPFSLFGDLEQHMRRQHELFCCRLCLQHLQIFTYERKWYSRKDLARHRMQGDPDDTSHRGHPLCKFCDERYLDNDELLKHLRRDHYFCHFCDSDGAQDYYSDYAYLREHFREKHFLCEEGRCSTEQFTHAFRTEIDLKAHRTACHSRSRAEARQNRHIDLQFSYAPRHSRRNEGVVGGEDYEEVDRYSRQGRVARAGTRGAQQSRRGSWRYKREEEDREVAAAVRASVAAQQQEEARRSEDQEEGGRPKKEEAAARGPEDPRGPRRSPRTQGEGPGPKETSTNGPVSQEAFSVTGPAAPGCVGVPGALPPPSPKLKDEDFPSLSASTSSSCSTAATPGPVGLALPYAIPARGRSAFQEEDFPALVSSVPKPGTAPTSLVSAWNSSSSSKKVAQPPLSAQATGSGQPTRKAGKGSRGGRKGGPPFTQEEEEDGGPALQELLSTRPTGSVSSTLGLASIQPSKVGKKKKVGSEKPGTTLPQPPPATCPPGALQAPEAPASRAEGPVAVVVNGHTEGPAPARSAPKEPPGLPRPLGSFPCPTPQEDFPALGGPCPPRMPPPPGFSAVVLLKGTPPPPPPGLVPPISKPPPGFSGLLPSPHPACVPSPATTTTTKAPRLLPAPRAYLVPENFRERNLQLIQSIRDFLQSDEARFSEFKSHSGEFRQGLISAAQYYKSCRDLLGENFQKVFNELLVLLPDTAKQQELLSAHTDFCNREKPLSTKSKKNKKSAWQATTQQAGLDCRVCPTCQQVLAHGDASSHQALHAARDDDFPSLQAIARIIT | 1.92 | 3.58 |
| 0.33 | 0.24 | 0.29 | PRPF40A (protein, UniProt O75400 1-957, looked up) Pre-mRNA-processing factor 40 …: MRPGTGAERGGLMVSEMESHPPSQGPGDGERRLSGSSLCSGSWVSADGFLRRRPSMGHPGMHYAPMGMHPMGQRANMPPVPHGMMPQMMPPMGGPPMGQMPGMMSSVMPGMMMSHMSQASMQPALPPGVNSMDVAAGTASGAKSMWTEHKSPDGRTYYYNTETKQSTWEKPDDLKTPAEQLLSKCPWKEYKSDSGKPYYYNSQTKESRWAKPKELEDLEGYQNTIVAGSLITKSNLHAMIKAEESSKQEECTTTSTAPVPTTEIPTTMSTMAAAEAAAAVVAAAAAAAAAAAAANANASTSASNTVSGTVPVVPEPEVTSIVATVVDNENTVTISTEEQAQLTSTPAIQDQSVEVSSNTGEETSKQETVADFTPKKEEEESQPAKKTYTWNTKEEAKQAFKELLKEKRVPSNASWEQAMKMIINDPRYSALAKLSEKKQAFNAYKVQTEKEEKEEARSKYKEAKESFQRFLENHEKMTSTTRYKKAEQMFGEMEVWNAISERDRLEIYEDVLFFLSKKEKEQAKQLRKRNWEALKNILDNMANVTYSTTWSEAQQYLMDNPTFAEDEELQNMDKEDALICFEEHIRALEKEEEEEKQKSLLRERRRQRKNRESFQIFLDELHEHGQLHSMSSWMELYPTISSDIRFTNMLGQPGSTALDLFKFYVEDLKARYHDEKKIIKDILKDKGFVVEVNTTFEDFVAIISSTKRSTTLDAGNIKLAFNSLLEKAEAREREREKEEARKMKRKESAFKSMLKQAAPPIELDAVWEDIRERFVKEPAFEDITLESERKRIFKDFMHVLEHECQHHHSKNKKHSKKSKKHHRKRSRSRSGSDSDDDDSHSKKKRQRSESRSASEHSSSAESERSYKKSKKHKKKSKKRRHKSDSPESDAEREKDKKEKDRESEKDRTRQRSESKHKSPKKKTGKDSGNWDTSGSELSEGELEKRRRTLLEQLDDDQ | 3.54 | 2.13 |
